Assay results as given in US7052908B2, “Androgen receptor coactivators” (University of Rochester, priority 1998, dated 2006).
Changes are numbered by the printed parent chain.

What was measured:
[1] = target: T1, mARe708k (Homo sapiens, UniProt P10275, E710K); test: AR transactivation, transient transfection CAT reporter assay, mutant AR; type: cell-based; conditions: mARe708k, DHT 10^-11 to 10^-8 M
T1 construct: expressed in transfected cells; host or cells: DU145
T1 sequence (P10275 1-920 E710K): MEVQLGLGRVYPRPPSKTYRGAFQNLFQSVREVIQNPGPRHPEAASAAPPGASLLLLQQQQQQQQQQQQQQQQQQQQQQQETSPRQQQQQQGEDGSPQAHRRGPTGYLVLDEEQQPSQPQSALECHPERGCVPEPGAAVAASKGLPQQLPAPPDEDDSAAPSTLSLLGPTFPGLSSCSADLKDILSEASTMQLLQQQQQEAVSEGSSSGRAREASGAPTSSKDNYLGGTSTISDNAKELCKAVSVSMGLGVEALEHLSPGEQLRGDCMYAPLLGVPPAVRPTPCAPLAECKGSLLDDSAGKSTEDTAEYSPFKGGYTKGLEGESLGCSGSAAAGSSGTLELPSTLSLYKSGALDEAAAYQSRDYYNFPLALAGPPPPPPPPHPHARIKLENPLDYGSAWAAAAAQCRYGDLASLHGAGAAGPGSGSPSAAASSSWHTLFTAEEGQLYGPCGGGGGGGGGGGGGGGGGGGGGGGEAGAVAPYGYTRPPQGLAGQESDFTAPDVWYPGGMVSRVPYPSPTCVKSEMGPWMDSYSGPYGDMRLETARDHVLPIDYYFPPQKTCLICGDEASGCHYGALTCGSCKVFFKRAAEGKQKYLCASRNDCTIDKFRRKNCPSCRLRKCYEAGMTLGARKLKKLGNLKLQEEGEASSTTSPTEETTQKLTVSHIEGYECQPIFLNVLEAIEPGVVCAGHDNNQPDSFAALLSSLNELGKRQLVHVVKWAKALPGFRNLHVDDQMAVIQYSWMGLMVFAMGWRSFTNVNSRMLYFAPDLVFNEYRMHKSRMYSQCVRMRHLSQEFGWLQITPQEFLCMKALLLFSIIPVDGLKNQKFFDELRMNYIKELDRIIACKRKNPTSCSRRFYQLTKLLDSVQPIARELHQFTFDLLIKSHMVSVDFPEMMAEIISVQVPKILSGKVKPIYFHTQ

[2] = target: T2, AR (Homo sapiens, UniProt P10275); test: AR transcriptional activity (MMTV-CAT) in PC3 cells
T2 sequence (P10275 1-920): T1 sequence (P10275 1-920 E710K) with K710E

[3] = target: T3, glucocorticoid receptor (GR) (Homo sapiens, UniProt P04150); test: Steroid receptor transactivation, MMTV-CAT reporter in DU145 cells; type: cell-based; conditions: DU145, relative to AR
T3 construct: expressed in transfected cells; host or cells: DU145
T3 sequence (P04150 1-777): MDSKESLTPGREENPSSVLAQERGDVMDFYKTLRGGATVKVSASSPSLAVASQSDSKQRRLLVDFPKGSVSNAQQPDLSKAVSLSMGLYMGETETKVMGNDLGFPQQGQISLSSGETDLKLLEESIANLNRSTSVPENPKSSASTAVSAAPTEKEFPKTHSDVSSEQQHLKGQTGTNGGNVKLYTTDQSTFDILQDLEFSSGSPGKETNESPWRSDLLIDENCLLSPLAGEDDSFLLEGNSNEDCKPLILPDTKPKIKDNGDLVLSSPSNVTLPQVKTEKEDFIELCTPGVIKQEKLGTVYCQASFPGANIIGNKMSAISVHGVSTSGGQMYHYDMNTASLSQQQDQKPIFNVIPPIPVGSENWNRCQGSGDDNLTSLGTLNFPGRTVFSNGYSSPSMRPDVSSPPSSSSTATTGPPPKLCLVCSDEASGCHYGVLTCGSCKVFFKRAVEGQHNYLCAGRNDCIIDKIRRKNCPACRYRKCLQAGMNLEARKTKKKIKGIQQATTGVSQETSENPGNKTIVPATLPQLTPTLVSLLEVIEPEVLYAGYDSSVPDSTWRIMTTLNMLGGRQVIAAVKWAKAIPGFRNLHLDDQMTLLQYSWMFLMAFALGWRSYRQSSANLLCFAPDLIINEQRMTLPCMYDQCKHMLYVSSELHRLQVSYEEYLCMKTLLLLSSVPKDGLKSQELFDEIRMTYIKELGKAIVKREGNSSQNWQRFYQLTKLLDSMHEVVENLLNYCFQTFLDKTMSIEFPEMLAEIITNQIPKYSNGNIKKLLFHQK

[4] = test system: mARt877s; test: AR transactivation, transient transfection CAT reporter assay, mutant AR; type: cell-based, human; conditions: mARt877s, DHT 10^-11 to 10^-8 M

B1: ARA55: androgen receptor coactivator, 444 aa, SEQ ID NO:4, 91% homology with mouse hic5 (protein)
chain: MPRSGAPKERPAEPLTPPPSYGHQPTGQSGESSGASGDKDHLYSTVCKPRSPKPAAPAAPPFSSSSGVLGTGLCELDRLLQELNATQFNITDEIMSQFPSSKVASGEQKEDQSEDKKRPSLPSSPSPGLPKASATSATLELDRLMASLPDFRVQNHLPASGPTQPPVVSSTNEGSPSPPEPTAKGSLDTMLGLLQSDLSRRGVPTQAKGLCGSCNKPIAGQVVTALGRAWHPEHFVCGGCSTALGGSSFFEKDGAPFCPECYFERFSPRCGFCNQPIRHKMVTALGTHWHPEHFCCVSCGEPFGDEGFHEREGRPYCRRDFLQLFAPRCQGCQGPILDNYISALSLLWHPDCFVCRECFAPFSGGSFFEHEGRPLCENHFHARRGSLCPTCGLPVTGRCVSALGRRFHPDHFACTFCLRPLTKGSFQERAGKPYCQPCFLKLFG
modifications: Homo sapien
Which results are given for B1?
enhancement of transactivation by ARA55 [1]: 4–8 fold; increase of AR transcriptional activity on transfection with exogenous ARA55 [2]: 4 fold; enhancement of GR transcriptional activation by ARA55 [3]: to a lesser degree; enhancement of transactivation by ARA55 [4]: 4–8 fold
